Experimental data published in article PMC7468127, “Structural basis of redox modulation on chloroplast ATP synthase” (Communications Biology, 2020).

T1: chloroplast ATP synthase (CF1FO) γ subunit (Spinacia oleracea, UniProt P05435 42-364, disulfide γCys240-γCys246 in the oxidized (IBZ) sample; free cysteines in the reduced (DTT) sample)
T1 construct: ATP synthase gamma chain, chloroplastic, Spinacia oleracea; endogenous subunit of the purified complex; One molecule for both redox states; also called central shaft γ subunit; source: purified from spinach leaves as part of the CF1FO complex (ammonium sulfate, sucrose gradient, anion exchange, SEC)
T1 sequence (looked up): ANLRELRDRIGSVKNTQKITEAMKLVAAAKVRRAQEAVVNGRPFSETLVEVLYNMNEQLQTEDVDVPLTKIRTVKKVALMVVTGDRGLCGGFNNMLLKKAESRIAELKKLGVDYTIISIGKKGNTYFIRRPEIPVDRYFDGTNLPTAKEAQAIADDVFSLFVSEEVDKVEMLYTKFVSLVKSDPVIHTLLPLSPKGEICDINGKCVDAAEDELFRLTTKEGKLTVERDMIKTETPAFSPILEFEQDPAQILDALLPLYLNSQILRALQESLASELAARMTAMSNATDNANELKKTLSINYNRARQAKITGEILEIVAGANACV

B1: chloroplast ATP synthase (CF1FO) subunit c (c14 ring) (natural protein, Spinacia oleracea, UniProt P69447 1-81, looked up)
chain: MNPLIAAASVIAAGLAVGLASIGPGVGQGTAAGQAVEGIARQPEAEGKIRGTLLLSLAFMEALTIYGLVVALALLFANPFV
notes: ATP synthase subunit c, chloroplastic, Spinacia oleracea; endogenous subunit of the purified complex; also called c ring; c-ring rotor; source: purified from spinach leaves as part of the CF1FO complex (ammonium sulfate, sucrose gradient, anion exchange, SEC); copies: 14
B2: chloroplast ATP synthase (CF1FO) ε subunit (natural protein, Spinacia oleracea, UniProt P00833 1-134, looked up)
chain: MTLNLCVLTPNRSIWNSEVKEIILSTNSGQIGVLPNHAPTATAVDIGILRIRLNDQWLTLALMGGFARIGNNEITILVNDAERGSDIDPQEAQQTLEIAEANLRKAEGKRQKIEANLALRRARTRVEASNTISS
notes: ATP synthase epsilon chain, chloroplastic, Spinacia oleracea; endogenous subunit of the purified complex; source: purified from spinach leaves as part of the CF1FO complex (ammonium sulfate, sucrose gradient, anion exchange, SEC)

Experiments:
cryo-EM structure = molecular target: the molecule itself; assay: cryo-EM structure
[1] = molecular target: T1, chloroplast ATP synthase (CF1FO) γ …; assay: cryo-EM structure; details: both partners purified

| Binder | stoichiometry N (cryo-EM structure) | binding result [1] |
| --- | --- | --- |
| B1 | 14 |  |
| B2 |  | binds |
